The NTF2 design screens of Basanta et al. (2020)

Experiment: protease stability score; higher = more stable; yeast display proteolysis, trypsin and chymotrypsin;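 further: relative to predicted unfolded state with 0 unfolded-like and 1 meaning tenfold more protease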

Sequence	protease stability score
SEDEEEHKEMLRILIHDNRTGDEDSFRDMFDPNVRFEQGEWSAHGRDWAEHVMRRADHVKLDLQTMDTQGDKVILHGRLILLQGEKRIDEKVIFIIRKIDGKWILESVHFH	1.21
DEEERQVLLLAKILIHLYYTGDEESFRKLLDPHVRIIWNGRDFVGRENWYELLHRVLRHWRIHHIDIHDFDVQGNKARFHTQIVVDVNGKHIRSHTEVIYVVVNGRVDEIEVIIR	2.37
DEIKRHFDEFIKVLREIIRTGDEEDLVRLMDPNVKLEVGDKRFHGMEVLDVLHKRADHLHEFDIHDWNIQGDKARVDLRLVGQFNGRTVIDNTTLWYEKIDGKWFIKSMRIH	1.18
SEEEHDTRNALKIIIRTLITGNEDERRKLLDPHVRLEFEGWHEHGRDAAHLLSFWYRERVDVLRDSKVEHVELQGDKIRMDIILISEYNGVHTSTHVHIVVEKFNGRWHMRSIFFL	1.16
SEEEEWIRRALEILIEIIRTGDEDSSKRYVDPHVRLHIGDKEFHGREDFTRMVHELFNRVDHIEIRIHDMRIINGQAHVDTELILRQGDKEIVLRTEIVLLKFDGKWIMESVHIR	1.29
DEDTKRAEHIMRMFIHSMLTGDEKTTHELLDPEARVNINGVDLHGRETLLEHHHRWLHELRIEDMHTEHYEVQGDYVHLHTREVVVVDGRRIELTTTFLLLKVDGRWVWTHIHVK	0.997
DEDHELVEKFLRQMIFAQITGDWRFMMHLADPHVRYEVGDKHYHGREDMERVFREWRVNSIRIEHIRIIGDKAETHQDEDGHIDGRRIELHVRLILLKVDGRWIVHNSHII	1.37
DEEEEYAIEFVILHIEALKTGDERKLEHLMDPHYKLDYNGRKVHGREQWLRFLNEWRVHIHDIKVDDHDVVNGRVILHVTIHGTVIFDGRNIRTHHEQEYVLHKVNGRWHFHSMIVR	1.5
TEEDEEVEWVLKVLKETNDTGDEHTFRKLMDPRTKFHINGKDYIGMEAWREQVEKLGFKHIHDIKIEDMRVYNGRIQLHGRVDMVQGDKKIDMHVILIAVKVNGRWLLRFDIVE	1.38
SEEERLTEEFLTKFEEILETGDEELLWRLIDPHARTLFDGQEFHGREDFVMIFDELVRHAGFDVRHIHSIHVQGDKIEVRSTMVVNGRNFEIRLHLRKINGRWHIEEIEIR	2.7
DESTSQARKAIEQLIHVEETGDEEMFSTLVDPHVRMDYNGVELHGMEKARNHWNELWKRFKGIKIELKRLEIQGNKVRVQMTYIVGDKNKYVEIHITKIDGQWVITEIHVD	1.12
QEDRERAERIINELMENELTGDEDRLRELADPRVRVEYDGQEHIGMELRSTWIKEMRFDHIHVDIDEFEFQGNKIHIKARFHIDVNINGRKRRYTVETFLVMKKINGVWFIKDIVFH	1.36
TEERKEMEEAWDRFVHNIHTGDEHSLLKLVDPHVRVQIGDKEVHGWRYLLQLLRDIITKVKNLTVDLRIEDERMIGNYIELEVILVINFENRYHFIRYHVRHEKVDGKWHLKEISRD	1.08
EEEKEHLTHMAKLFHDLTQTGDEHLFNHLADPHVKIDVHIGDKDLHFHGREEFLWWILEIIEQWRIEFDLRDTIPVNGKVHVKTDIKINVNGREHRIETRLHLVIVNGKLKESEIRVS	1.69
DEDHEIAKKASDIWWHILRTGDEDQLHKMMDPHVRTTVGDKEHHGREAVEHLTHFYKNMQIHVTHERFHVQGDKVHVEREGHLRIGDKRVEVRVRIEIHKVDGKWIIHTIEMELR	0.425
SEEEHEADLLHKELWESWHTGDEKHLTNLMDPNVRLQIGDKHYVGRENALNVLHFIRRKLGIKYFELESVTHHEINGRIHTIFDGSILINGKTVKDKIEVDTEKYNGQWRITQINIDFR	2.24
SEDIEELRKVFEDWVRILRTGDEKSHKELMDPTYRNDQGEFHYHGMEDLEKFTRRYDHVNLIFRDMRLVNGVARVDGEIQLHQGDFKIDTHVIIYMLKIDGQWRIRSIEIR	2.08
SEDEEIMKDLLELFFEAMKTGDEDTLRHLFDPNARFVIGDKLLHGREEYIRYLQEWRVEIEHFNIRRLELVDGRIHLEGHMHLHVQYGDKHERRTHHLEWEIIKINGRWIFRSVRIN	1.48
SEEEKRNHEIAKKFIEAFETGDEDFVNHMADPHVKIIVDGVELHGRDQLHHVRKWLEERYPNVRWHLDDMRVQGNKVFLETTLHVGDKTRKSEIILIVINGRLKEIEMRIR	1.92
DERKKDAERMVEWIMHLWETGNFERLFRLADPHVRFILHQGDKELHFHGRELVEEAIFRLLLHIRIDDRIDRRVHIFPNRLDIHGQVHVHVGDKRHDLIIHIEVFIIDGKLKRIEIEIE	1.49
DEEEKLMKHRWEEWVRFLKTGDFDEIHDYMDPNVRLFIGDKTFHGRDVFARLVYRMGAKHVEFDLHDEHLINGKLIFHGRVVHTQGDKFIEFEVEIIAEKVNGKWLNRHQIFR	0.456
DEEDEHLHQFLEDFKHNLKTGNFEAISKNADPHVRVIFNGRRFHGMENVKRLWEELGVDHVRIDHFELIDGRIDLNTTIEQGDKHRRTRLHILIVNGRIKSIHIHFE	1.16
DEEEEQARDLTKLLEKLWATGDEHTLLRLLDPNARNIVGDKEHHGREILLKFWRHLGVSRVESKIEDVKVFDGRVYIKGRVRFDGVELETEIESEKVNGQWHIRIIRMR	1.79
SDLDHRLRKLAEDLSRILETGNWRLMHKLADPNVKEDINGVEFHGRELLVKWLEDLLKELRVHFRVDHYDIQGNFLRVEITNNVFINGVQKVRDERLEVNMFDGKEKENRVRVE	0.717
DELAEYAKEVIERIDHSITTGDERSVKRLLDPDVKLLIGDKELHGREDWEEWMKRIDHVSVRDSRIKEVKVYDGRLRIDGHKRMYYFNENEEREHTTRVVIILLKIDGRWVMHSVHFI	1.4

Sequence	protease stability score
DEKRKVEERLLELIIEIFRTGDWEWYSELADPNVRVHQGEYHKHGREQASKHLLDELRHLGIKHIDERSYDVIDGQVYWHVRIEVGDKERQMHIRVRIVNGVLQHVHIEIH	1.17
SEEQEKSEEFWRLVVEFLLTGDEHQILNLLDPNVLTEIGDKKYHGRELASEVLRRYADEIRLKEVELHDRDEVNGVLHLHTVVRGEYNGREINLESHWELEKVDGRWHIKRVEIR	1.6
SEEERVAIEHMRWVIRALLTGDEELLRHLFDPSTRFDFDGQHRIGMEDLVRFWRHLRVRRFEIEDERVHFQGDKIEARTEGRIQGDINGKNVEREIRVILIVMKIDGKWIIRIISHEVD	1.63
DEEEIALKRIVELWLEVIETGDERITEHLLDPRARFEFENHSRHGRKELTRWMTQLGIKYLDLHRMHIRVFDGRLHVHIDGTEIYDGVRRKSEIRMDVLKVDGKWLVEEYSIRFK	1.25
SEDEEIVHLAIEMYLESIRTGDWKLWEKLIDPDVRLEVNGVEFHGMEEFLKFEREINKRVDHVEVRLRDTRLVNGQVNLNTELINRYDGRTIITETTYVAIKVDGKWYIHEYRIE	1.14
DTSFTILEEVIKLFIEASETGDERVIQHLFDPNVRFRVDGKDFHGMDWLLEHFSHLRLHDIQITHVHIYNGRVEVTGHVRGNFDGQEKVHNTHILLRKIDGKWRIEHISMK	1.41
DEEEQLFHEAHDKFIKIMETGDWKDFHRNFDPDAKIEVGDKDKHGREEATEMLKFILDLLGVDHVLVKRLRIYGNKIESDVVFNVNGVEQRFHLISVKINGKWRTHKIVLR	1.23
DEDEESSESFYRLWVELFETGNFEILERLFDPHVRIKIGDKHIHGMEEHIRESFHIIERFKGVQIRVDEVRLFDGRMDVHGELIINGQSVRMRIIVRKVNGRWHLTEMILD	1.48
DHHEHDTKILMDLWLHALTTGDWRLLAELADPHVRFEVEFDGRRIEYHGRHSFEEHMKRLVDKIKNLTLTIHDVRVIGDFVHIEGETTWDGRTSSIHIHLKVINGRVKHIKVEER	1.92
SEEEHHFERWMRVFLHSMRTGDPSSFEELLDPNTRFIYGDKERHGREEANKWAHHLRITHMEDTDFDVYDGVLTIDIRLDFVVNGRRHEVKTHLLVVKIDGRWLINEVEIK	0.514
DEEEHKSKLAVELWHKVEETGDENTMKRLADPNVRIDINGVELHGMEVLVRRLREMGADHFHVDLRRVTVVNGRVHVNTEVIIRQGDKVIILTTRLHIEKVDGRWKITTIEFE	1.32
TEDLEKVHTFLNLLLHSRLTGDEDSLHRMADPNMRVDQGEYQHHGRELFIEWTKRELEHLRLRHYHLEDIDIYNGVVKVTGKMDVEVNGRRHHVDVTLIVLKINGRWHLKSVHIS	1.24
SEEEEEAERAIKLWIHNVLTGDEDSLTKLLDPHVKIIDYVNGVEINNHGREWVKHWLEHLRYDIIRIHEFRSQGDKVHVDGKSEGNYNGKHVETRVMFHLHVYNGVIKSVHIIHI	1.63
DEDHEAVERLLEHLQTAFLTGDWRREDELVDPNARVHFNGQERHGRHVLRYVNEFLEDRFKNLQIRHSTVHDSHVQGDKIILFTSYELRVDGREFSLKTKIIFHKVDGRWLVTHLYIE	0.823
DEEERISEELFNFITKHWLTGDFDAVRNRLDPNVRYLINGREWHGREYARHLASHLRVERVKIENFEIQGNKITFDTRMDGEFDGQHIDVKTIIIFVKIDGKWLLHEFVIH	1.34
HEDEEEQRLANEIFHKMIWTGDEERLKDLMDPHVRIDVNGREVHGMEEWLEHFLQFKNMKFRVHFRENRIIDGVARSRTELRIIFDGREYRIDLIVIAQKINGRWILRSIEIR	1.34
SEDEEAVRRILKKLLQSHETGDFRMFDRMLDPHVRLDVNGREHIGRESVHRVVEELRIEDMRLTDMHSQGNYLDIDGRLDGSVNGKKDTYRVRLVILKVDGRWIIEEMRIG	1.95
DEDDDLALHMFELLLHVWTTGDERIMHELLDPHARLDFNGRTFHGREAFIHYMHEIFRHIRINDSTVRHIRVIDGRLDIESHVDIRVGDKRFEMETHLIVLKVDGKWQVTLYKLS	1.4
SEIEETTRQASEFNLHSFRTGDEKMVHELADPHVRTDFNGKRLHGRESLTKELDKLLKDLGVDHVRIEHVNIYNGRVDIIMRVEVGDKEWKITIIAIKIDGKWKLESIEME	0.132
SEEEKEMHHIARLFFELWLTGDEETHQRLLDPDAKHSFNGVILHGRDEMIRYWRQFLEEIRLRSIEIRRITSVGDKVHVDSHVDGEVNGRRIVTREYIELEVVDGRWKRVKLHIK	1.38
SEDEKMANEMLEIMMRNLITGNWEELSRLADPHVRIVINGVELHGRETINNYLHHLRIKRVHLNVTHIESIDGKVKSIGLLREHGEFNGKETETHTKVILIIQKVNGVWIVKEIRDE	1.4
RKEEDEARKFLHTYIELMRTGDEDNLKEFVDPHVRLEVGDKRVVGWDRYVENVVELIEKVPNLRIHIDSVRAIGNWLHVDGTLIQGDKHREIHLHLQKIDGRWILTHQHVR	1.34
DDRERATRELLKLLWDAMKTGDEELFYKLADPDTRMIINGRELHGMEEVSRILLELLTHMRLKNITIRDIDVQGDKVDVHGELHGEVGDKSHTFETHIIILKVNGKWVLRSYIIR	1.55
NKMMEEIHHWLRLLIENEITGDEEKSLHLADPEARIDFDGVEIHGWERFLKFVEEKLKLLGARVEDIKIHDYRIIDGRLHIDSRVHIEINGVRQTREREIVSRKVNGRWLVNSLHFR	0.607
NEDEEMIKTAIELLLRTWKTGDEHSLTELLDPHVRVHINGVDLHGRHAIHWLSRHMRFEEIRVDHFEIVNGRVHLETKVRIHYGDKSDTVESHVISLKVDGKWKTQRVQYH	0.954
